These sequences were tested on Escherichia coli TOP10 (assay: shrunken log2 fold change of peptide-encoding DNA abundance (4.5 h post-induction vs induction); higher = less antimicrobial activity (less host growth inhibition)). Conditions: time post-induction: 4.5 h; library: site-saturation at positions 5, 18, 19, 20.
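Further: peptides expressed intracellularly from a pBAD plasmid library in pooled LB shake-flask culture, induced with 0.3% L-arabinose, DNA abundance read by NGS, three biological replicates, DESeq2 with apeglm shrinkage.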

Row | Sequence | shrunken log2 fold change
1 | RRIRHRPPRLPRPRPRPRNQPRP | 0.0527
2 | RRIRHRPPRLPRPRPRPRPGPRP | 0.324
3 | RRIRHRPPRLPRPRPRPRPKPRP | -0.0808
4 | RRIRHRPPRLPRPRPRPRQSPRP | 0.144
5 | RRIRHRPPRLPRPRPRPRRIPRP | 0.0543
6 | RRIRHRPPRLPRPRPRPRSMPRP | -0.241
7 | RRIRHRPPRLPRPRPRPRTHPRP | -0.137
8 | RRIRHRPPRLPRPRPRPRVHPRP | 0.0785
9 | RRIRHRPPRLPRPRPRPRVMPRP | 0.0966
10 | RRIRHRPPRLPRPRPRPRYKPRP | -0.424
11 | RRIRHRPPRLPRPRPRPRYTPRP | -0.123
12 | RRIRHRPPRLPRPRPRPSCCPRP | -0.343
13 | RRIRHRPPRLPRPRPRPSDTPRP | -1.05
14 | RRIRHRPPRLPRPRPRPSEFPRP | -0.477
15 | RRIRHRPPRLPRPRPRPSESPRP | -0.232
16 | RRIRHRPPRLPRPRPRPSFKPRP | -0.6
17 | RRIRHRPPRLPRPRPRPSFNPRP | -0.583
18 | RRIRHRPPRLPRPRPRPSGEPRP | -0.03
19 | RRIRHRPPRLPRPRPRPSGMPRP | 0.0613
20 | RRIRHRPPRLPRPRPRPSHMPRP | -0.856
21 | RRIRHRPPRLPRPRPRPSHWPRP | -0.288
22 | RRIRHRPPRLPRPRPRPSINPRP | -0.605
23 | RRIRHRPPRLPRPRPRPSMLPRP | -0.539
24 | RRIRHRPPRLPRPRPRPSPNPRP | -0.302
25 | RRIRHRPPRLPRPRPRPSQQPRP | -0.031

Row | Sequence | shrunken log2 fold change
26 | RRIRHRPPRLPRPRPRPSQRPRP | -0.102
27 | RRIRHRPPRLPRPRPRPSQSPRP | -0.22
28 | RRIRHRPPRLPRPRPRPSRIPRP | 0.111
29 | RRIRHRPPRLPRPRPRPSTLPRP | -0.0931
30 | RRIRHRPPRLPRPRPRPSVDPRP | 0.0776
31 | RRIRHRPPRLPRPRPRPSVKPRP | -0.364
32 | RRIRHRPPRLPRPRPRPSYFPRP | -0.628
33 | RRIRHRPPRLPRPRPRPSYHPRP | -1.11
34 | RRIRHRPPRLPRPRPRPTALPRP | 0.0443
35 | RRIRHRPPRLPRPRPRPTCQPRP | -0.044
36 | RRIRHRPPRLPRPRPRPTCRPRP | -0.232
37 | RRIRHRPPRLPRPRPRPTCVPRP | 0.134
38 | RRIRHRPPRLPRPRPRPTCYPRP | -0.272
39 | RRIRHRPPRLPRPRPRPTDTPRP | -0.116
40 | RRIRHRPPRLPRPRPRPTDVPRP | -0.217
41 | RRIRHRPPRLPRPRPRPTEQPRP | -0.185
42 | RRIRHRPPRLPRPRPRPTFFPRP | 0.0852
43 | RRIRHRPPRLPRPRPRPTFHPRP | -0.326
44 | RRIRHRPPRLPRPRPRPTGKPRP | -0.00448
45 | RRIRHRPPRLPRPRPRPTHDPRP | 0.124
46 | RRIRHRPPRLPRPRPRPTHIPRP | -0.468
47 | RRIRHRPPRLPRPRPRPTIEPRP | -0.0518
48 | RRIRHRPPRLPRPRPRPTINPRP | -0.459
49 | RRIRHRPPRLPRPRPRPTKIPRP | -0.316
50 | RRIRHRPPRLPRPRPRPTKPPRP | 0.0121

Row | Sequence | shrunken log2 fold change
51 | RRIRHRPPRLPRPRPRPTKTPRP | -0.194
52 | RRIRHRPPRLPRPRPRPTKWPRP | 0.0132
53 | RRIRHRPPRLPRPRPRPTLIPRP | 0.0888
54 | RRIRHRPPRLPRPRPRPTLPPRP | -0.00384
55 | RRIRHRPPRLPRPRPRPTMDPRP | -0.179
56 | RRIRHRPPRLPRPRPRPTMSPRP | -0.11
57 | RRIRHRPPRLPRPRPRPTNWPRP | 0.0467
58 | RRIRHRPPRLPRPRPRPTPAPRP | 0.681
59 | RRIRHRPPRLPRPRPRPTPSPRP | 0.276
60 | RRIRHRPPRLPRPRPRPTQDPRP | 1.87
61 | RRIRHRPPRLPRPRPRPTQIPRP | 0.51
62 | RRIRHRPPRLPRPRPRPTRFPRP | 1.65
63 | RRIRHRPPRLPRPRPRPTRYPRP | -0.453
64 | RRIRHRPPRLPRPRPRPTSCPRP | -0.125
65 | RRIRHRPPRLPRPRPRPTSFPRP | 0.0399
66 | RRIRHRPPRLPRPRPRPTTKPRP | 0.00227
67 | RRIRHRPPRLPRPRPRPTWDPRP | 0.0552
68 | RRIRHRPPRLPRPRPRPTWIPRP | -0.206
69 | RRIRHRPPRLPRPRPRPTYNPRP | -0.758
70 | RRIRHRPPRLPRPRPRPVASPRP | -0.122
71 | RRIRHRPPRLPRPRPRPVDTPRP | -0.508
72 | RRIRHRPPRLPRPRPRPVENPRP | -0.0355
73 | RRIRHRPPRLPRPRPRPVEPPRP | 0.109
74 | RRIRHRPPRLPRPRPRPVFNPRP | -0.532
75 | RRIRHRPPRLPRPRPRPVGDPRP | -0.206

Row | Sequence | shrunken log2 fold change
76 | RRIRHRPPRLPRPRPRPVGPPRP | 0.195
77 | RRIRHRPPRLPRPRPRPVICPRP | -0.0717
78 | RRIRHRPPRLPRPRPRPVLCPRP | -0.273
79 | RRIRHRPPRLPRPRPRPVNCPRP | 0.00367
80 | RRIRHRPPRLPRPRPRPVNFPRP | -0.636
81 | RRIRHRPPRLPRPRPRPVPLPRP | -0.396
82 | RRIRHRPPRLPRPRPRPVQMPRP | 0.0393
83 | RRIRHRPPRLPRPRPRPVRGPRP | 0.328
84 | RRIRHRPPRLPRPRPRPVRIPRP | 0.0159
85 | RRIRHRPPRLPRPRPRPVSMPRP | -0.0784
86 | RRIRHRPPRLPRPRPRPVSRPRP | -0.0482
87 | RRIRHRPPRLPRPRPRPVSVPRP | -0.225
88 | RRIRHRPPRLPRPRPRPVTHPRP | -0.12
89 | RRIRHRPPRLPRPRPRPVVMPRP | -0.245
90 | RRIRHRPPRLPRPRPRPVYIPRP | -0.0204
91 | RRIRHRPPRLPRPRPRPWASPRP | -0.0831
92 | RRIRHRPPRLPRPRPRPWDIPRP | 0.0726
93 | RRIRHRPPRLPRPRPRPWDRPRP | -0.0232
94 | RRIRHRPPRLPRPRPRPWFCPRP | -0.583
95 | RRIRHRPPRLPRPRPRPWHHPRP | 0.0223
96 | RRIRHRPPRLPRPRPRPWHNPRP | -0.261
97 | RRIRHRPPRLPRPRPRPWHYPRP | 0.137
98 | RRIRHRPPRLPRPRPRPWILPRP | -0.223
99 | RRIRHRPPRLPRPRPRPWIWPRP | -0.0845
100 | RRIRHRPPRLPRPRPRPWKNPRP | -0.187

Row | Sequence | shrunken log2 fold change
101 | RRIRHRPPRLPRPRPRPWLHPRP | -0.00987
102 | RRIRHRPPRLPRPRPRPWLLPRP | -0.397
103 | RRIRHRPPRLPRPRPRPWLRPRP | -0.0716
104 | RRIRHRPPRLPRPRPRPWMMPRP | -0.463
105 | RRIRHRPPRLPRPRPRPWPGPRP | -0.327
106 | RRIRHRPPRLPRPRPRPWPWPRP | 0.199
107 | RRIRHRPPRLPRPRPRPWQHPRP | -0.0597
108 | RRIRHRPPRLPRPRPRPWQSPRP | -0.0359
109 | RRIRHRPPRLPRPRPRPWRHPRP | -0.00865
110 | RRIRHRPPRLPRPRPRPWSDPRP | -0.138
111 | RRIRHRPPRLPRPRPRPWVCPRP | -0.044
112 | RRIRHRPPRLPRPRPRPWWHPRP | -0.113
113 | RRIRHRPPRLPRPRPRPWWMPRP | 0.0619
114 | RRIRHRPPRLPRPRPRPYAVPRP | -0.0274
115 | RRIRHRPPRLPRPRPRPYAYPRP | -0.596
116 | RRIRHRPPRLPRPRPRPYDGPRP | -0.00992
117 | RRIRHRPPRLPRPRPRPYDIPRP | -0.387
118 | RRIRHRPPRLPRPRPRPYDNPRP | -0.0737
119 | RRIRHRPPRLPRPRPRPYESPRP | -0.0531
120 | RRIRHRPPRLPRPRPRPYFTPRP | -0.679
121 | RRIRHRPPRLPRPRPRPYFWPRP | -0.258
122 | RRIRHRPPRLPRPRPRPYGMPRP | -0.0262
123 | RRIRHRPPRLPRPRPRPYHFPRP | -0.686
124 | RRIRHRPPRLPRPRPRPYHQPRP | -0.981
125 | RRIRHRPPRLPRPRPRPYKEPRP | -0.00664

Row | Sequence | shrunken log2 fold change
126 | RRIRHRPPRLPRPRPRPYKTPRP | -0.00968
127 | RRIRHRPPRLPRPRPRPYLYPRP | -0.482
128 | RRIRHRPPRLPRPRPRPYPGPRP | -0.216
129 | RRIRHRPPRLPRPRPRPYPWPRP | -0.113
130 | RRIRHRPPRLPRPRPRPYQFPRP | -0.0129
131 | RRIRHRPPRLPRPRPRPYRPPRP | -0.115
132 | RRIRHRPPRLPRPRPRPYRWPRP | -0.00879
133 | RRIRHRPPRLPRPRPRPYSIPRP | -9.97e-05
134 | RRIRHRPPRLPRPRPRPYSVPRP | -0.481
135 | RRIRHRPPRLPRPRPRPYSWPRP | -0.345
136 | RRIRHRPPRLPRPRPRPYTAPRP | -0.735
137 | RRIRHRPPRLPRPRPRPYVIPRP | -0.00839
138 | RRIRHRPPRLPRPRPRPYWNPRP | -0.98
139 | RRIRHRPPRLPRPRPRPYWTPRP | 0.0019
140 | RRIRHRPPRLPRPRPRPYYKPRP | -0.913
141 | RRIRHRPPRLPRPRPRPYYTPRP | -0.0493
142 | RRIRIRPPRLPRPRPRPACPPRP | -0.146
143 | RRIRIRPPRLPRPRPRPADHPRP | -0.0431
144 | RRIRIRPPRLPRPRPRPADLPRP | 0.0446
145 | RRIRIRPPRLPRPRPRPAEDPRP | -0.0521
146 | RRIRIRPPRLPRPRPRPAFLPRP | -0.279
147 | RRIRIRPPRLPRPRPRPAFPPRP | -0.0288
148 | RRIRIRPPRLPRPRPRPAFYPRP | -0.387
149 | RRIRIRPPRLPRPRPRPAHPPRP | 0.239
150 | RRIRIRPPRLPRPRPRPAIPPRP | -0.169
